Values of other authors as cited in paper PMC8645602.
Read-outs that look alike come from different tables or passages of the source.

Columns and labels:
Tyr9 [1] = biological target: Tyr9 (UniProt position 9, KPKLHYFNARG)
Tyr9 [2] = biological target: Tyr9 (UniProt position 9, KPKLHYFNGRG); conditions: not stated (the article does not say whether the enzyme was free or glutathione-bound)

## Glutathione transferase A1-1 (HsaGST A1-1) (Homo sapiens)
Tyr9 [1]; free enzyme (no glutathione)
  pKa: 8.1
Tyr9 [1]; glutathione bound
  pKa: 9.2

## Glutathione transferase A3-3 (HsaGST A3-3) (Homo sapiens)
Tyr9 [2]
  pKa: 7.9
